Assay results: IntAct's records for PubMed 31585087

B1: GRB2-associated-binding protein 1 (Homo sapiens), Q13480 (parent)
chain: MSGGEVVCSGWLRKSPPEKKLKRYAWKRRWFVLRSGRLTGDPDVLEYYKNDHAKKPIRIIDLNLCQQVDAGLTFNKKEFENSYIFDINTIDRIFYLVADSEEEMNKWVRCICDICGFNPTEEDPVKPPGSSLQAPADLPLAINTAPPSTQADSSSATLPPPYQLINVPPHLETLGIQEDPQDYLLLINCQSKKPEPTRTHADSAKSTSSETDCNDNVPSHKNPASSQSKHGMNGFFQQQMIYDSPPSRAPSASVDSSLYNLPRSYSHDVLPKVSPSSTEADGELYVFNTPSGTSSVETQMRHVSISYDIPPTPGNTYQIPRTFPEGTLGQTSKLDTIPDIPPPRPPKPHPAHDRSPVETCSIPRTASDTDSSYCIPTAGMSPSRSNTISTVDLNKLRKDASSQDCYDIPRAFPSDRSSSLEGFHNHFKVKNVLTVGSVSSEELDENYVPMNPNSPPRQHSSSFTEPIQEANYVPMTPGTFDFSSFGMQVPPPAHMGFRSSPKTPPRRPVPVADCEPPPVDRNLKPDRKVKPAPLEIKPLPEWEELQAPVRSPITRSFARDSSRFPMSPRPDSVHSTTSSSDSHDSEENYVPMNPNLSSEDPNLFGSNSLDGGSSPMIKPKGDKQVEYLDLDLDSGKSTPPRKQKSSGSGSSVADERVDYVVVDQQKTLALKSTREAWTDGRQSTESETPAKSVK
partner: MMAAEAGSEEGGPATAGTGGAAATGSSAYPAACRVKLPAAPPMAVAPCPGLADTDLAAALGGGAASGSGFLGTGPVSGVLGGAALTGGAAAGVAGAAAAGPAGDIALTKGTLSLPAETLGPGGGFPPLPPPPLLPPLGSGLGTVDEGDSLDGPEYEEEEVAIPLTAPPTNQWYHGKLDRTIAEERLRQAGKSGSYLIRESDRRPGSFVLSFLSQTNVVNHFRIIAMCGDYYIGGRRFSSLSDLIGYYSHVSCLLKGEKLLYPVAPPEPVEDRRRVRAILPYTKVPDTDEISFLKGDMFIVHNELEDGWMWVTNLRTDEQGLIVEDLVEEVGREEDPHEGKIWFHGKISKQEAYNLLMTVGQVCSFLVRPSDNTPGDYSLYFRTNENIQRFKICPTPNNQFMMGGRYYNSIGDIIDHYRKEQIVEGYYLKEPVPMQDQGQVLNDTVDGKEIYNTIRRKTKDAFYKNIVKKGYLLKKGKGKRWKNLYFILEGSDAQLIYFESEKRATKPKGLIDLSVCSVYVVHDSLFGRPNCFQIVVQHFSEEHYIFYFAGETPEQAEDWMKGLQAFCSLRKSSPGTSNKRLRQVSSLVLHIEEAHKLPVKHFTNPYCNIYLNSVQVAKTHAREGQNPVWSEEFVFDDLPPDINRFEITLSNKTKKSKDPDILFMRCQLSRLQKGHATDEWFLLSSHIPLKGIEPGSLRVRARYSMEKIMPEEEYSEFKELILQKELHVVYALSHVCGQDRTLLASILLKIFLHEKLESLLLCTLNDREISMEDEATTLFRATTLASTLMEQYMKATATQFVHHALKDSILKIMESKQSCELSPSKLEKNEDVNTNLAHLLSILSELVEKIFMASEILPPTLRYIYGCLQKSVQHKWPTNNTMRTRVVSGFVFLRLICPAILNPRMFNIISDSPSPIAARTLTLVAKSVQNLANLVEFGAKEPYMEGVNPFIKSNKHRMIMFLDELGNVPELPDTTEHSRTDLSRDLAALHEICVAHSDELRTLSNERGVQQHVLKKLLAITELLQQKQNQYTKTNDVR

Variants of: B1
Conditions: with rasa1_rat Rasa1, P50904

effect of a mutation on the interaction | Variant
disrupting interaction strength | P320S
